In assay [1] the target is T1, human DKK2 (human, UniProt Q9UBU2 34-259).
T1 construct: tested by immunoprecipitation
T1 sequence: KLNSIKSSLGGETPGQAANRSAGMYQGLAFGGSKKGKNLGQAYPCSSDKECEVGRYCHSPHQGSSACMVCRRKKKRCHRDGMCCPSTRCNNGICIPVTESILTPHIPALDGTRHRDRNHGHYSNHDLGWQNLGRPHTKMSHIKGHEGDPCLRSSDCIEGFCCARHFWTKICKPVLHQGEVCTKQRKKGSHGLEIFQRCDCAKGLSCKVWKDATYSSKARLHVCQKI
The experiment in a line: immunoprecipitation.

In assay [2] the target is T2, human DKK4 (human, UniProt Q9UBT3 19-224).
T2 construct: also called Dickkopf-4
T2 sequence: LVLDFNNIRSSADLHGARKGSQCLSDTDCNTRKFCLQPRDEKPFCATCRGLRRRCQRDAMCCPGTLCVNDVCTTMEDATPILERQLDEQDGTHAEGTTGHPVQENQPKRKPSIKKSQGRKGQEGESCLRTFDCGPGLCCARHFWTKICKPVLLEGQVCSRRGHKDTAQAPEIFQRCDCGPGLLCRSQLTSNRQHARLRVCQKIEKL
In words: SPR (Biacore T100), antibody captured by anti-human IgG1 Fc, DKK in flow; average of three experiments. As to the method: (§1) FIG. 6. […] Anti-Human IgG1 Fc (Jackson Immuno Research, Cat#109-006-098) is immobilized onto each flow cell, followed by capture of a lead candidate at an expected capture of about 100 RU. […] The normalized data (background subtracted) are fit to a 1:1 binding with mass transport model using Kinetics analysis in BIA evaluation 1.0 software. This experiment is carried out in triplicate, and data presented are the average of these three experiments with standard deviation.
(Surface plasmon resonance follows binding to a sensor surface in real time, without labels.)

Assay [3] deals with T3, wild type (WT) rhDKK1 (HEK HIS epitope tagged Batch# BTP7757) (human, UniProt O94907 32-266, N-glycosylated (one theoretical N-linked site at amino acid 256)).
T3 construct: Made in HEK cells; also called WT DKK1; rhDKK1 (recombinant human DKK1) (Batch BTP7757)
T3 sequence: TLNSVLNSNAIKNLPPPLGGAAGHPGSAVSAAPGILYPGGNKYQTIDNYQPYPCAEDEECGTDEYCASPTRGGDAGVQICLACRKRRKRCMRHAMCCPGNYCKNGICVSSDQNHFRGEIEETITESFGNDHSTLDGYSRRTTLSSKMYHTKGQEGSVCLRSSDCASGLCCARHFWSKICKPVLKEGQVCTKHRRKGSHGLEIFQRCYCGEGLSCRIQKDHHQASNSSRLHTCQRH
The description is as above. As to the method: as §1

For assay [4], the target named is human DKK3 (human, UniProt Q9UBP4 22-350). In words: SPR (Biacore T100); NSB = No Significant binding, not detectable above background.
The target of assay [5] is T4, recombinant human DKK1 (human, UniProt O94907 32-266).
T4 sequence: T3 sequence
In words: cell-based or functional assay.

Assay [6] concerns the target T3, wild type (WT) rhDKK1 (HEK HIS epitope …). The experiment in a line: SPR, Biacore T100, CM5 chip; antibody captured on immobilised anti-human IgG1 Fc, rhDKK1 0.195-6.25 nM as analyte; 1:1 binding with mass transport; mean of three experiments with standard deviation [6B]. As to the method:
as §1

Assay [7] has as its target T5, rat DKK1 (Novartis) (rat, UniProt A6I0Z0 32-270).
T5 sequence: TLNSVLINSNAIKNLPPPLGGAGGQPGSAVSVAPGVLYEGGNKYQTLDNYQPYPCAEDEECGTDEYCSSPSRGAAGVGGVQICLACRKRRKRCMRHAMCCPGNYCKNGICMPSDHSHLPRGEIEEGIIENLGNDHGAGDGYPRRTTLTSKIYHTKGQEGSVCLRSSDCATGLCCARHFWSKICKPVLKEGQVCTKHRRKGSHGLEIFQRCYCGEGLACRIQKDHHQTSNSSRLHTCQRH
In words: cell-based or functional assay.

Assay [8] concerns the target T4, recombinant human DKK1. The experiment in a line: cell-based or functional assay. The source holds these as a separate data set.
The target of assay [9] is T6, mouse DKK1 (R&D Systems) (mouse, UniProt O54908 32-272).
T6 sequence (looked up): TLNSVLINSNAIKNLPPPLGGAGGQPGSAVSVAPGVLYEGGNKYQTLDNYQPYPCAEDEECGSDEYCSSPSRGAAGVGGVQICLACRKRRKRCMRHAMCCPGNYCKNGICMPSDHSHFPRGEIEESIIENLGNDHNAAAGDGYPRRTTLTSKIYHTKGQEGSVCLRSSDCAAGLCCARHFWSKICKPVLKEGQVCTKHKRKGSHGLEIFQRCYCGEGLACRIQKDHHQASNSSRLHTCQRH
The experiment in a line: cell-based or functional assay.

In assay [10] the target is T7, cynomolgus DKK1 (cynomolgus monkey (Macaca fascicularis), UniProt A0A7N9IE82 32-266).
T7 sequence: T3 sequence with H114N, T150S, S166T
The experiment in a line: cell-based or functional assay.

Assay [11] addresses T2, human DKK4. The experiment in a line: SPR (Biacore T100).
For assay [12], the target named is T8, N-linked deglycosylated rhDKK1 (human, UniProt O94907 32-266, N-linked glycan removed with the enzyme PNGase F).
T8 construct: Same HIS-tagged HEK protein as WT rhDKK1 (Batch BTP7757) after PNGase F treatment; also called N-DEGLY DKK1; DKK1 (N-degly)
T8 sequence: T3 sequence
In words: SPR (Biacore T100).

In assay [13] the target is T3, wild type (WT) rhDKK1 (HEK HIS epitope …). In words: SPR (Biacore T100).
Assay [14] addresses T8, N-linked deglycosylated rhDKK1. In words: SPR (Biacore T100). This is another data set of the same source.
Assay [15] has as its target T9, carboxyl terminal truncated DKK1 (deltaC, residues 1-185) with C-terminal HA epitope (Homo sapiens (Human), UniProt O94907 32-185).
T9 construct: Secreted into conditioned medium of transfected Hek293 cells; Contains Cys-1 but not Cys-2
T9 sequence: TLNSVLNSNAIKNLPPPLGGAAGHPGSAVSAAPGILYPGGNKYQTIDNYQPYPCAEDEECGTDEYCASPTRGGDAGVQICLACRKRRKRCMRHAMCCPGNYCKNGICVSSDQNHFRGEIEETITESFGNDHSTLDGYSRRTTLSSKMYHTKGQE
The experiment in a line: immunoprecipitation from conditioned medium of transfected Hek293 cells, protein G beads, SDS-PAGE, anti-HA blot [panel B.]. The text has this: Full-length (FL, containing residues 1-266), carboxyl terminal truncated (ΔC, containing residues 1-185), and amino terminal truncated (ΔN, containing residues 1-60 plus residues 157-266), are fused with an HA epitope at their C termini, and Cloned into a mammalian expression vector under the control of the cytomegalovirus (CMV) promoter. […] 1/10 of total input is loaded as control.

Changes are numbered by the printed parent chain.

Experimental findings from patent publication US20120023600A1 (Novartis, published 2012) are described below.

human DKK3, sequence (Q9UBP4 other isoform, or with tags, fused parts or gaps limits assumed): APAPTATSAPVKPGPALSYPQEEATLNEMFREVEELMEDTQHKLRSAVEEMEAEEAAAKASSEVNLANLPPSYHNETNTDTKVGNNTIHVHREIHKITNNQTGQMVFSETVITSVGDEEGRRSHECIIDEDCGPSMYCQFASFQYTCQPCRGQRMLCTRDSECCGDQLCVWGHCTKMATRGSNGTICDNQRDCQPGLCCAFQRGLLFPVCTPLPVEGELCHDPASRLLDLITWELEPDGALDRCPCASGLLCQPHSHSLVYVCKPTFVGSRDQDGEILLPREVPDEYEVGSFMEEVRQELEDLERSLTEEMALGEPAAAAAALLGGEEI

B1: anti-DKK1/4 antibody (antibody, V domains shown)
VH: QVQLVESGGGLVQPGGSLRLSCAASGFTFSSYWMSWVRQAPGKGLEWVSGISYSGSNTHYADSVKGRFTISRDNSKNTLYLQMNSLRAEDTAVYYCARMGIDLDYWGQGTLVTVSS
VL: DIALTQPASVSGSPGQSITISCTGTSSDVGGFNYVSWYQQHPGKAPKLMIHDGSNRPSGVSNRFSGSKSGNTASLTISGLQAEDEADYYCQSWDVSPITAVFGGGTKLTVLG
notes: also called neutralizing anti-DKK1/4 antibody; NVP-anti-DKK1/4 antibody-NX
Broadly, the Kd is the equilibrium constant for the complex coming apart. As usually defined, the koff is the first-order rate constant of dissociation. Broadly, the kon is a measure of how fast the partners come together. Turning to B1, the binding result in assay [1], in [4] and in assay [15] was “no binding” in each case. Further, the Kd was 0.297 nM in [2], 0.002 nM in assay [3], 0.00311 nM in assay [13] and 0.216 nM in assay [14]. For the same molecule, in [5], the “apparent EC50, TCF/LEF luciferase reporter (SuperTopflash, Kremen) assay” value amounted to 0.16 nM. Also, the koff in assay [6] came to 9e-06 s⁻¹; in [13], 2.32e-05 s⁻¹; in [14] it was 0.000307 s⁻¹. Besides, the kon in assay [6] stood at 4.6e+06 M⁻¹ s⁻¹; in assay [13] it was 7.45e+06 M⁻¹ s⁻¹; in [14], 1.42e+06 M⁻¹ s⁻¹. The “Reactivation of wnt3a signaling (TOPFlash) EC50 (pM)” value in assay [7] stood at 255 pM; in [8], 80.6 pM; in [9], 60.5 pM; in assay [10], 54.2 pM. Moreover, in [11], the “fold lower affinity than for DKK1” value is roughly 100 fold. Also, in assay [12], the “fold lower affinity than for WT DKK1” value was 100 fold.
